Measurements reported in patent US20190240295A1.
pKd: −log10 of the molar value.

Experiments:
[1] = biological target: Plasma-derived VWF (pdVWF, Diagnostica Stago) (UniProt P04275); experiment: SPR (Biacore), pdVWF immobilized on CM5 chip; mean KD of lots D-F
[2] = biological target: Plasma-derived VWF (pdVWF, Diagnostica Stago) (UniProt P04275); experiment: SPR (Biacore), pdVWF immobilized on CM5 chip; mean KD of lots G-I
[3] = biological target: Plasma-derived VWF (pdVWF, Diagnostica Stago) (UniProt P04275); experiment: SPR (Biacore), pdVWF immobilized on CM5 chip; mean KD of lots A-C
[4] = biological target: LRP1 (alpha2-macroglobulin receptor/CD91) receptor (BioMac) (UniProt Q07954); experiment: SPR (Biacore), LRP1 immobilized on CM4 chip; mean KD of lots D-F
Sequence of UniProt Q07954 (Q07954 20-4544 limits assumed): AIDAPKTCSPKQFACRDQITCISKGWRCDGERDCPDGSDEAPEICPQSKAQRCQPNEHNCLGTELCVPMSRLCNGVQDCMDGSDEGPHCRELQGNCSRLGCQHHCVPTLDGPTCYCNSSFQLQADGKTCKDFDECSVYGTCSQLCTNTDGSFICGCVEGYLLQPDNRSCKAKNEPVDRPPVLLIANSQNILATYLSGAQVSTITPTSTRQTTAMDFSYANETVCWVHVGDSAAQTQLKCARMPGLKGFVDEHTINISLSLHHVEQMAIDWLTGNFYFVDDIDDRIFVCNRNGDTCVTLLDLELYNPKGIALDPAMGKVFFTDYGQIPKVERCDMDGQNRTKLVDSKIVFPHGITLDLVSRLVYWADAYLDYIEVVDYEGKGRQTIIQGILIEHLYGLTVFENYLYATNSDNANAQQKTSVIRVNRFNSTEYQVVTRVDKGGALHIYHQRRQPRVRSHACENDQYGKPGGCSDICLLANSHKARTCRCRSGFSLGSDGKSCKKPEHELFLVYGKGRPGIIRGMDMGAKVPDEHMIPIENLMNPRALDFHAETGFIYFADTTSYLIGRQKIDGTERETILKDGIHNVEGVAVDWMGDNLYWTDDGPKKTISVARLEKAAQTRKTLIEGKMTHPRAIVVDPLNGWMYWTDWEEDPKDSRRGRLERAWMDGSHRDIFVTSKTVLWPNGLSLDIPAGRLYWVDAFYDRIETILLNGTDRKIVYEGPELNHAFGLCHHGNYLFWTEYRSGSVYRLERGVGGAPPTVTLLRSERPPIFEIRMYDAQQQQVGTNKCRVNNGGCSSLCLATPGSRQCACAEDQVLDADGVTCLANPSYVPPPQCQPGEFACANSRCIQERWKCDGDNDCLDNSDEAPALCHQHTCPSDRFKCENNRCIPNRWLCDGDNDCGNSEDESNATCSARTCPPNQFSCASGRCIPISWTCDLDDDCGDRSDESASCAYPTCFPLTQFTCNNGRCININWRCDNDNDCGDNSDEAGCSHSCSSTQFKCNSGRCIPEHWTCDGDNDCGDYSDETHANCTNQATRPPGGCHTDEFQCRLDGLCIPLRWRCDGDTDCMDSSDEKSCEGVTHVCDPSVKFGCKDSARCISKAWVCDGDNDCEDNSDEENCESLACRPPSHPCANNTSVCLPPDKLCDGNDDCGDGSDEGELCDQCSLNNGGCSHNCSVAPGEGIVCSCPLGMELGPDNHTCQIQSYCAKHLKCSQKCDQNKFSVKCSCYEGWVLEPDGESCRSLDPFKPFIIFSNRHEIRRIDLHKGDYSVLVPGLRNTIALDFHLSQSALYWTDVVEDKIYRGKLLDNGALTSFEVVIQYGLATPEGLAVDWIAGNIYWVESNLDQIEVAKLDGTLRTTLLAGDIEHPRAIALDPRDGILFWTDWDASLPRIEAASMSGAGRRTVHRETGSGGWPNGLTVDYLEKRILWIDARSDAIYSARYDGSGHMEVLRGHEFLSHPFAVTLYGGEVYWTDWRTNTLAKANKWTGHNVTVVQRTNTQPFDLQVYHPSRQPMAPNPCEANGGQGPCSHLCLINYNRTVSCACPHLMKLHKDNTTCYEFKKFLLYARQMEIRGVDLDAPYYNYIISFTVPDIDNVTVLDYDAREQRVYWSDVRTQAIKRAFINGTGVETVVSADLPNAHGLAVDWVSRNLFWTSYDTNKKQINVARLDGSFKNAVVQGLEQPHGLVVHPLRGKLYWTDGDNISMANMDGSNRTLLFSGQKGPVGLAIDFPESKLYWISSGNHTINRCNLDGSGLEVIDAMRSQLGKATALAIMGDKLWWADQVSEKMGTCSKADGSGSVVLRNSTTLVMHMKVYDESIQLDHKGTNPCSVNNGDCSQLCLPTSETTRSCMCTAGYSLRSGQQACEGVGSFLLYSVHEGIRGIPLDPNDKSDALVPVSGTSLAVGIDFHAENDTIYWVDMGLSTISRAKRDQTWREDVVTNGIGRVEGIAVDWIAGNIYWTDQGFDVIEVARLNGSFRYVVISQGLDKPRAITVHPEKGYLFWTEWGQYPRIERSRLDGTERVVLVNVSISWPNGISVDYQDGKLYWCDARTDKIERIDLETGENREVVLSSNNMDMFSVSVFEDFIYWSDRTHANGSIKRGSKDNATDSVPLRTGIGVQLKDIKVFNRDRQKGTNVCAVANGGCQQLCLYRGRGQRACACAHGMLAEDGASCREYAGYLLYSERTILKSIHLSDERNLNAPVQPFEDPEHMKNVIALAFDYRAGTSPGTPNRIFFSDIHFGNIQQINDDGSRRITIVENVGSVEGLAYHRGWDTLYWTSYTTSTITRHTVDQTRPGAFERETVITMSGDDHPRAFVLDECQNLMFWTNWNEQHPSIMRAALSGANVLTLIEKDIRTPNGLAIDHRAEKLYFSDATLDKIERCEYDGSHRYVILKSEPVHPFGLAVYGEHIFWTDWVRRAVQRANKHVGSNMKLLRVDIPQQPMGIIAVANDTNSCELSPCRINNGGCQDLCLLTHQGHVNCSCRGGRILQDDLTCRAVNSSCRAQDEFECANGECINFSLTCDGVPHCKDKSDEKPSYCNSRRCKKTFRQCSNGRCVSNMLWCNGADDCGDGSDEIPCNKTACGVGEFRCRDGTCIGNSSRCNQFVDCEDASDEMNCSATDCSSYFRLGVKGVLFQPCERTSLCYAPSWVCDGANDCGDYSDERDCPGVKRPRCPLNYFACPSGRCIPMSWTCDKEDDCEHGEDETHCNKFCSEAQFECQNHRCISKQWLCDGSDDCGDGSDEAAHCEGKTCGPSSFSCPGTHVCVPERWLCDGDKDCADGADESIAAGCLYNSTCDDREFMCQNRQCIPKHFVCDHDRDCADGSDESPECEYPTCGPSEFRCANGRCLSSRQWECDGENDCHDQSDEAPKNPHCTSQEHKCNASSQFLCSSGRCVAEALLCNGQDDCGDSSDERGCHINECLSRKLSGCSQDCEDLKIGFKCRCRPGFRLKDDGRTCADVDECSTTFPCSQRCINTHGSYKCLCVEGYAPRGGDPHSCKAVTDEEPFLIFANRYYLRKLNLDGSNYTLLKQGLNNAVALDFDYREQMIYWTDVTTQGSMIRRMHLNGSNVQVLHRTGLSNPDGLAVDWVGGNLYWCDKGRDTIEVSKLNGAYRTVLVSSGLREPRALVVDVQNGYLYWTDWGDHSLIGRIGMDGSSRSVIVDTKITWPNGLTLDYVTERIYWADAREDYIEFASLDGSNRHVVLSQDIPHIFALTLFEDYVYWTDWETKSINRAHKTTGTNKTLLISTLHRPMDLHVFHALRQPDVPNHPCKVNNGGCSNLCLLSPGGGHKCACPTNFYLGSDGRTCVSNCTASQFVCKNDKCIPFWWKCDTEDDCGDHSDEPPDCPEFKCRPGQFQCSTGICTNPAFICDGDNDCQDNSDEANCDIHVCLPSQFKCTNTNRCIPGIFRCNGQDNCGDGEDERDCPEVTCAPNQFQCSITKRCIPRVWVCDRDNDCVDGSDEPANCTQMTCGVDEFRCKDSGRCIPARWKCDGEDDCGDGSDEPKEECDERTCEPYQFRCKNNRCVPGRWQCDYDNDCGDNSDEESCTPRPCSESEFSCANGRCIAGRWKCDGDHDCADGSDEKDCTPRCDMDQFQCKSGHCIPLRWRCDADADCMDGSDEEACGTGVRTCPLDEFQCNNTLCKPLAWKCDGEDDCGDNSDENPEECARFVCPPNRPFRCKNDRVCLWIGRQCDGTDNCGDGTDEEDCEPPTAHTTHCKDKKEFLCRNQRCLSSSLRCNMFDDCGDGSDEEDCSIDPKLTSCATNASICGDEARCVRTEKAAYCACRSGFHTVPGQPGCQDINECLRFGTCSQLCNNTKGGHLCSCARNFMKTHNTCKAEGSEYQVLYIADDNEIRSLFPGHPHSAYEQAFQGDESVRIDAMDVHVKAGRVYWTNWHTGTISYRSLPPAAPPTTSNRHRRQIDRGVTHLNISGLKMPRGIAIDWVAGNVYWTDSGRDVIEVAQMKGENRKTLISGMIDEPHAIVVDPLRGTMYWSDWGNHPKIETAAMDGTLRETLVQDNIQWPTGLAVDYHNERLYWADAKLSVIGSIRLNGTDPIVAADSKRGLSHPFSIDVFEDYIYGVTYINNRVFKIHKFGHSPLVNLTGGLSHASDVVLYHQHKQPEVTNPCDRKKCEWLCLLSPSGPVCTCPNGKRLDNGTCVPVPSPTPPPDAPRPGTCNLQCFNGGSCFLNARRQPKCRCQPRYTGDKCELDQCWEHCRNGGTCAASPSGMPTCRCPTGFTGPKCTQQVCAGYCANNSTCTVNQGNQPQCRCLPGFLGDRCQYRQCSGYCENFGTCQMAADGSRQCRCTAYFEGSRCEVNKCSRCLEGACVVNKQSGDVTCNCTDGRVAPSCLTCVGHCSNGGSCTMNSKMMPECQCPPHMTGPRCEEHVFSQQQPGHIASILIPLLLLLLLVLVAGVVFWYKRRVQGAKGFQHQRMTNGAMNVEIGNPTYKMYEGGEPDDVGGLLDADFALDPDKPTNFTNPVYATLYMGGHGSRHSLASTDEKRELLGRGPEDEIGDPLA

[5] = biological target: LRP1 (alpha2-macroglobulin receptor/CD91) receptor (BioMac) (UniProt Q07954); experiment: SPR (Biacore), LRP1 immobilized on CM4 chip; mean KD of lots A-C
[6] = biological target: LRP1 (alpha2-macroglobulin receptor/CD91) receptor (BioMac) (UniProt Q07954); experiment: SPR (Biacore), LRP1 immobilized on CM4 chip; mean KD of lots K-N
[7] = biological target: Plasma-derived VWF (pdVWF, Diagnostica Stago) (UniProt P04275); experiment: SPR (Biacore), pdVWF immobilized on CM5 chip; mean KD of lots K-N

| pKd [1] | pKd [2] | pKd [3] | pKd [4] | pKd [5] | pKd [6] | pKd [7] | Substance |
| --- | --- | --- | --- | --- | --- | --- | --- |
| 9.55 | 9.51 | 9.55 | 7.49 | 7.72 |  |  | PSA-rFVIII (polysialylated recombinant Factor VIII) (from UniProt P00451 20-2351) |
|  |  |  |  |  | 7.65 | 9.49 | rebuffered rFVIII (unmodified recombinant Factor VIII) (from UniProt P00451 20-2351) |
